assay: yeast display, Sf9 membrane polyspecificity reagent, FACS + sequencing; frameworks hold sequencing errors
Procedure, shortened: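 Galactose induction of a Saccharomyces cerevisiae BJ5465 synthetic nanobody display library ran 36–48 hours. The cells were then stained for 1 hour at 4 °C with 10% biotinylated, detergent-solubilized Sf9 membrane reagent, pulled down on streptavidin microbeads and FACS-sorted into low and high (top ~1%) gates on expression and reagent-binding fluorescence. Labels for polyreactivity follow the gate of origin.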

Sequence | polyreactivity (PSR sort gate)
QVHLVESGGRLVKAGGSLRLSCPASGYITTKYAMGWYRQAPGKEMELVAAIRYSGTSTYYADSVKGRFTISRDNATNTVYLQMNSLKPEDTAVYYCNTRRYVRTTKYDYWGQGTQVTVSS | high polyreactivity
QVHLVESGGRLVQAGGSLRLSSAASGSIFVKNAMGWYRQAPGKERELVATISSGGSTYYADSVKGRFTISRDNAKNTVYLQMNSLKPEDTAVYYSNTASYVSWYVHYYYWGVGTQVTVSS | low polyreactivity
QVHLVESGGVLLQAGGSLRLSCAASGFIFKWNAMGWYRQAPGKERELVAAISWHGGSTNYADSVKGRFTISRDNAKNTVYLQMNSLKPEDTAVYYCAKQQSPYYPSTLDYWGQGTQVTVSS | high polyreactivity
QVHLVESGGWLVQAGGSLRLSCAASGRTFHVYAMGWYRQAPGKERELVAAITWSGDSTYYADSVKGRFTISRDNAKNTVYLQMNSLKPEDTAVYYCAASQFWKYDYWGQGTQVTVSS | low polyreactivity
QVHLVESGRGLFQAGGSLRLSCAASGSIFGYNAMGWYRQAPGKERELVAAITWRGGSTYYADSVKGRFTISRDNAKNTVYLQMNSLKPEDTAVYDCAAYVYQEYDYWGQGTQVTVSS | high polyreactivity
QVHLVESGRGLFQAGGSLRLSCAASGYTFGPYDMGGYRQAPGKERELVAGITLSGGITYYADSVKGRFTISRDNAKNTVYLQMNSLKPQDTAVSYCAAAFYVSYSVIYEYWGHGTQVTVSS | high polyreactivity
QVHLVESGVGLVQAGGSLRLRCAASGRTLYYYAMGWYRQAPGKQSELVAAINSGGSTKYADSVKGRFTISRDNAKNTVYLQMHSLKPEDTAVYFCAARGYIRGGYYWGQGTQVTVSS | high polyreactivity
QVHLVESRGGLLQAGGSLRLSCAASVYIFYYYAMGWYRQAPGKEREFVAAITSGDSTYADSVKGRFTISRDNAKNTVYLQMYSLKPEDTAVYYCAAESYFFSPRTREKFDSWGQGTQVTVSS | low polyreactivity
QVHLVESRGGLVQAGGSLSLSCAASGITFYIYAMGWYRQAHGKERELVAAFTTSGDSTYYADSVKGRFTISRDNAKNTVYLQMNSLKPEDTAVYDCAAEYWYTYSWGQGTQVTVLS | low polyreactivity
QVHLVESVGGLVQAGGSLRLSCAASGSIFDVYTMGCYRQAPGKERELVAAINTGGGSKYYADSVKGRFTISRDNAKNTVYLQMNSLKPEDTAVYYCAASVYHYGPLYYWGQGTQVTVSS | low polyreactivity
QVHLVESVGGLVQAGGSLRLSSAASGIIFRSNAMGWYRQAPGKERELVAAISSRGSSTNYADSVKGRFTISRDNAKNTVYLQMNSLNPEDTAVYYCNARGSRVDQTESEYWGQGTQVTVSS | high polyreactivity
QVHLVESWGGLVQAGGSLRLSCAASGRTFWKYAMGWYRQAPWKDRVLVAAITASGARTYYADSVKGRFSISRDNGKNTVYLQMNSLKPEDTSVYYCNAGSVSDRQMDYWGQGTQVTVSS | low polyreactivity
QVHLVESWGGLVQAGGSLRLSCSASGITFDEYTIGWYRQAPGKERELVAAIDSDGSTTYADSVKVRFTISRDNAKNTVYLQMNILKPEDTEVYYCNAEHGDFCWHYLLYDYDYWGQGTQVTVSS | low polyreactivity
QVHLVETGGGLVQAGGSLRISCAASGFTFSRYAMVWYRQAPGKERELVAAITSRGGSTYYADSVKGRFTISRDNAKNTVYLQMNSLKPEDTAFYYCAASGRNRKDGLYEYYYWGQGTQVTVSS | high polyreactivity
QVHLVETVRGLLQAGGSLRISCAASGRSFKRYAMGWYRQAPGKERELVAAITRSGGSTYYADSVKGRFTISRDNAKNTVYLQMNSLKPEDTAVYYCATRSYNNELEYWGQGSQVTVSS | high polyreactivity
QVHLVVSGGGLVQAGGSLRLSCAASGLTIWYYAMGWYRQAPGKESEFVAAITSRGGDTYYADSVKGRFTISRDNAKNTVYLQMNSLKPEDTAVYYCAVRPRYYGTYRYYYWGQGTQVTVSS | high polyreactivity
QVHSVESGGGLVQAGGSLRLSCSASGIIFYSYAMGWYRQAPGKERELVAGITIVGSTIYADSVKGRFTISRDNPKTTVYLQMISLKAEATAVYYCNKADLHFIEMDYWGQATQVTVSS | low polyreactivity
QVHVVESGGGLVQAGVSLLLSCAASGRTFYRNAMGWYRQAPGKERELVAAISSRGGSTYYADSVKGRFTISRDNAKNTVYLQMNSLKPEDTAVYYCAANYGYGGDYDYWVQGTQVTVSS | high polyreactivity
QVKLEESGGGLVQAGGSLRLSCAASGSTFRAYTMGWYRQAPAKEREFVAAISRSGGSTFYADSVKGRFTISRDYAKNTVYLQMNSLKPEDNAVYYCAASYRYSASYYWGEGTQVTVSS | high polyreactivity
QVKLEESGGRLVQAGGTLRLRCAASGIIYRFYTIGWYRQAPGKERELVAAIRSGGRTYYADSVKGRFTISRDNAKNTVYLQINSLKPEDSAVYYCAKEPSRYSRYNYWGQGTQVTVSS | high polyreactivity
QVKLGESGGGLVQAGGSLRLSCAASGSILEFNAKGWYRQAPGKERELVAGITRDGGTTYADSVKGRFTISRDNAKNNVYFQMNSLKPEDNAVYYCAGTYYFSRWDLYGYWGHGTQVTVSS | low polyreactivity
QVKLKESVGGLVQAGGSLRLSCAASGSISATGNMGWYRQAPGEERELVAAINFGSNTYYADSVKGRFTISRDNAKNTVYLQKSGLKPEDTAVYYCAVDGWYVGPYYYWGQGTQVTVSS | high polyreactivity

Sequence | polyreactivity (PSR sort gate)
QVKLQESGGGLVQAGGSLRLSCAASGYIFLHYYMGWYRQAPGKEREFVAGITSGTNTNYADSVKGRFTIRDNAKNTVYLQMNSLKPEDTAVCYCAVTYPYWGDYTYWGQGTQVTVSS | low polyreactivity
QVKLVDSGGGLVQAGGILRLSCAASGRIFSDYAMGWYRQAPGKERELVATITSGDSTNYADSVKGRFTISRDNAKNTVYLQMNSLKPEDTAVYYCNADRVYVRGRFTYDYWGQGTQVTVSS | low polyreactivity
QVKLVDSGGGLVQAGGSLRISCAASGRIFGRYTMGWYRQAPGKERELVAGITYSGGSTYYADSVKGRFTISRDNAKNTVYLQMNSLKPEDTAVYYCAARLSGSGGFDYWGQGTQVTVSS | high polyreactivity
QVKLVDSGGGLVQAGGSLRISCGASGRTFYGYDMGWYRQAPGKERELVAAINWRGVRTYYADSVKGRFTISRDNAKNTDYLEMNCLKPEDTAVYYCGVYNHWVYGNDYWGQGTQVTVSS | high polyreactivity
QVKLVDSGGGLVQAGGSLRLSCAASGRIAVNAMGWYRQAPGKERELVAAISVSGGSTNYADSVKGRFTISRDNAKNTVYLQMNSLKPEDTAVYYCAARAFDPILRNDYSGQGTQVTVSS | low polyreactivity
QVKLVDSGGGLVQAGGSLRLSCAASGRIIRINAMGWYRQAPGKERELVAAITRGGTTYADSVKGRFTISRDNAKNTVYLQMNSLKPEDTAVYYCNARTGRSPTGFRYWGQGTQVTVSS | high polyreactivity
QVKLVESAGGLVQARGSLRLSCAGSGITFVRNAMGWYRQAPGKERELVAAISSGGSTYYADSVKGRFTISRDNAKNTVYLQMNSLKPEDTAVYYCNAQIYGRLYRYRWHFYWGQGTQVTVSS | high polyreactivity
QVKLVESGAGLVHAGGSLRLSCAASGFIFFYYAMGRYRQAPGKERYLVATISANGGNTYYADSVKGRFTISRDNAKNTVYLQMNRLKPEDTAVYYCARYTWYLRDWQWYYWGDEDYWGQGTQVTVSS | high polyreactivity
QVKLVESGGCLVQAGCSLSLSCAASGRTFVTYAMGWYRQAPGKEREFVAAISWSGVSTYYADSVKGRFTISRDNAKNTVYLQMNSLKPEDTAVYYCAAKRVRALYGGSEGGYWGQGTQVTVSS | low polyreactivity
QVKLVESGGGIVQAGGSLRLSCAASGIIFARNAMGCYRQAPGKERELVAGINGGRKNYADSVKGSFTISRDNAKNTVYLQMNSLKPEDSAVYYCAARNKGTLYRYGYWGQGTQVTVSS | high polyreactivity
QVKLVESGGGLVHAGGSLRLSCAASGFIFYYYAMGWYRQAPGKERELVAAITSSGGSTYYADSVKGRFTISRDNAKNTVYLQMNSLKPEDTAVYYCNARYVSASRNRGTSRYDYWGQGTQVTVSS | high polyreactivity
QVKLVESGGGLVKAGGILRLSCAASGRTFRRNAMGWYRQPPGKESELVAAISSSGGSTYYADSVKGRFTISRDNAKNTVYLQMNSLKPEDTAVYYCNAYRYYVYDTYDGHGYWGQGTQVTVSS | high polyreactivity
QVKLVESGGGLVQAGASLRLSVAASGNIFSVNTIGTYRQAPGKERELVAAITRRSGRTYYADSVKGRFTISRDNAKNTVFLQMNSLNPEDTAVYYCAASWRGASVIRFDYWGQGTQVTVSS | high polyreactivity
QVKLVESGGGLVQAGGSHRLSCAASGSIFGDYVMGSYRQAPGKEMELVAAINRGGSTYYADSVKGRFTISRDNAKNTVYLQMNSLKPADTAVYYCAAGYPSWYYGYPYDSWGQGTQVTVSS | low polyreactivity
QVKLVESGGGLVQAGGSLRLICAASGMTFVIYAMGWYRQAPGKERELVARNTWSGGSTYYADSEKGRFTISRDNSKNTVYLQMNSLNPEDSAVYYCAARRFYYYTAGYDYWGQGTQVTVSS | low polyreactivity
QVKLVESGGGLVQAGGSLRLSCAASGFIFIDNTMGWYRQEPGKERELVAGINTSGASTHYADSVKGRFTISRDYAKNTVYLQMNSLKPEDTAVYYCNRGDLPKADYNDYSYDYDYRGQGTQVTVSS | low polyreactivity
QVKLVESGGGLVQAGGSLRLSCAASGFIFKANAMGWYRQAPGKETELVAAITWRDGNTNYADSVKGRFTISRDNAKNTVYLQMNSLKPEDTAGYYCAVRLLADDGYPAVVGDDYWGQGTQVTVSS | low polyreactivity
QVKLVESGGGLVQAGGSLRLSCAASGFIFLLYDMGWYRQAPGKERELVAANTSDGTTNYADSVKGRFTISRDNAKNTVYLQMNSLKPEDTAVYYCAADDEPYVYEVTAYLGYEYWGQGTQVTVSS | high polyreactivity
QVKLVESGGGLVQAGGSLRLSCAASGFTFEEYAMGCYRQSPGKERELVAAISASGGRTYYADSVKRRFTISRDNAKNTVYLQMNSLKPEDTAVYYCAAGYRGRRIMDYWGQGTQVTVSS | high polyreactivity
QVKLVESGGGLVQAGGSLRLSCAASGFTFEYYAMGWYRQAPGKERELVAAIRSDSGTNYADSVKGRFTISRDNAKNTVYLQMNSLKPEDTAVYYCAAPTVVLIDYDYWGQGTQVTVSS | low polyreactivity
QVKLVESGGGLVQAGGSLRLSCAASGFTFSRNTMGWYRQAPGKERELVATISFRGGTTYYADSVKGRFTISRDNAKNTVYLQMNSLKPEDTAVYYCAVKVGFVRLLYHYYYWGQGTQVTVSS | high polyreactivity
